In PMC11093360:

Tests used:
M2trunk(1–228) (human) = M2trunk(1–228) (human) (UniProt P08172)
M2trunk(1–283) (human) = M2trunk(1–283) (human) (UniProt P08172)

Substance “M2tail(368–466) (from UniProt P08172 368-466) (domain or fragment)” has a Bmax of [3H]NMS binding sites in COS-7 cells cotransfected with both fragments (M2trunk(1–228) alone: N.B.) (M2trunk(1–228) (human)) of 70 fmol/mg and a Maximum inhibition of forskolin stimulated cAMP accumulation (%) by carbachol in COS-7 cells cotransfected with both fragments (M2trunk(1–228) (human)) of 29%.

In the case of “M2tail(M-281-466) (from UniProt P08172 281-466) (domain or fragment)”, the Bmax of [3H]NMS binding sites in COS-7 cells cotransfected with both fragments (M2trunk(1–283) alone: N.B.) (M2trunk(1–283) (human)) is reported as 480 fmol/mg and the Maximum inhibition of forskolin stimulated cAMP accumulation (%) by carbachol in COS-7 cells cotransfected with both fragments (M2trunk(1–283) (human)) is reported as 37%.
